This note sets out measurements from paper PMC5472440.

In series [1] the test system is hIno80CTD (human). The series can be described thus: MST. Particulars: Hill coefficient 1.8 +/- 0.2, MST: 25 mM HEPES pH 8.0, 50 mM NaCl, 1 mM TCEP, 10% glycerol, 0.01% Tween-20, 0.1 mg/mL BSA, 25 C, EMSA: 25 mM HEPES pH 8.0, 50 mM NaCl, 0.5 mM …. Background: In EMSA bound probe runs differently from free probe, usually more slowly.
For series [2], the system named is hIno80CTD (human). The series can be described thus: EMSA. The conditions noted are these: Kd apparent, 50 nM DNA, MST: 25 mM HEPES pH 8.0, 50 mM NaCl, 1 mM TCEP, 10% glycerol, 0.01% Tween-20, 0.1 mg/mL BSA, 25 C, EMSA: 25 mM HEPES pH 8.0, 50 mM NaCl, 0.5 mM ….

Regarding 50 bp duplex DNA, in the series on hIno80CTD (human) [1], the K half turned out to be 1000 nM. Besides, the Kd in the series on hIno80CTD (human) [2] amounted to 1000 nM.
